According to US20240238420A1 (WUHAN UNIVERSITY, published 2024):
Values belong to the molecule of their own block, whether it stands above or below them.

Legend:
[1] = target: CD123 combined mutant R84Q-V85I (Homo sapiens (Human)) (UniProt P26951); experiment: scFv-luciferase binding to transfected HEK 293T cells (FIG. 4A)
[2] = target: CD123 combined mutant R84Q-V85M (Homo sapiens (Human)) (UniProt P26951); experiment: as above
wild-type CD33 protein = target: T1, wild-type CD33 protein (Homo sapiens (Human), UniProt P20138 18-364); experiment: scFv-luciferase binding to HEK 293T cells transfected with wildtype or mutant CD33 (RLU)
T1 construct: Expressed in transfected HEK 293T cells; A flag tag is mentioned for the Western blot constructs; no signal peptide limits are stated; also called Siglec3
T1 sequence (P20138 18-364 limits assumed): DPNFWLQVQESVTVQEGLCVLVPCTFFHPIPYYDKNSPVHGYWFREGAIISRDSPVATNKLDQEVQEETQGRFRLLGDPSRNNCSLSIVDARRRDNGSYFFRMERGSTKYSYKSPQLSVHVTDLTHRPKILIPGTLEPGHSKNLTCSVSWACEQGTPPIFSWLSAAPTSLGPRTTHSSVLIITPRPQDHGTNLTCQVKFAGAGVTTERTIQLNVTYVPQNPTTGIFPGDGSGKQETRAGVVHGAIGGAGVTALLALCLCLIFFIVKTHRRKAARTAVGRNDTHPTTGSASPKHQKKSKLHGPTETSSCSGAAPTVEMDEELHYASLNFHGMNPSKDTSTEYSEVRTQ
Method: FIG. 1A-D. Determination of epitopes of CD33 that mediate the interaction by anti-CD33 scFv clone my9.6 or HM195. (A) Binding affinity of indicated CD33 mutations with anti-CD33 scFV clone my9.6. HEK 293T cells were transfected with wildtype or indicated CD33 mutant and then incubated with anti-CD33 scFV-luciferase fusion proteins, RLU: relative luminescence units. (B) Western blot of CD33 expression. HEK293T cells were transfected with flag tagged wild-type or indicated CD33 mutants. (C) Binding affinity of additional CD33 mutations. RLU: relative luminescence units (D) Western blot of CD33 expression. HEK293T cells were transfected with flag tagged wild-type or indicated CD33 mutants.
HEK 293T cells were transfected with wildtype or certain CD33 mutants and then incubated with anti-CD33 scFV-luciferase fusion proteins. The mutated residues included W22, C41, W60, I105, D112, Y116, F118, S131, and P132. The tested antibodies included my9.6 and HM195. […] FIGS. 1B and […] present Western blot images of CD33 expression from the transfected cells.

wild-type CD123 protein = target: T2, wild-type CD123 protein (Homo sapiens (Human), UniProt P26951 19-378); experiment: scFv-luciferase binding to HEK 293T cells transfected with wildtype or mutant CD123
T2 construct: no signal peptide limits are stated; also called alpha chain of interleukin-3 receptor
T2 sequence (P26951 19-378 limits assumed): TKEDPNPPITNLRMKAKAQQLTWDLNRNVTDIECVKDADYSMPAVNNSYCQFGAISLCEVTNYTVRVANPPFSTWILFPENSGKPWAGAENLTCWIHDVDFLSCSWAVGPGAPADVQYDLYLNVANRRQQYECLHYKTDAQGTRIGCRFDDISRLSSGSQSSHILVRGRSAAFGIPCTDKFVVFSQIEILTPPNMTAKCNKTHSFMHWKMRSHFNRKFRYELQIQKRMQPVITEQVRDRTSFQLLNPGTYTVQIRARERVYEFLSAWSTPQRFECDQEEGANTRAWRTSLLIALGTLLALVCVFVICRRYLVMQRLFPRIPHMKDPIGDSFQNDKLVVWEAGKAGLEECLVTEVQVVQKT
Method: HEK 293T cells were transfected with wildtype or indicated CD123 mutant and then incubated with anti-CD123 scFv-luciferase fusion proteins. (B) Western blot of CD123 expression. HEK293T cells were transfected with flag tagged wild-type or indicated CD123 mutants.
HEK 293T cells were transfected with wildtype or indicated CD123 mutant and then incubated with anti-CD123 scFv-luciferase fusion proteins. […] The expression of these mutants was confirmed by Western blot (FIG. 3B).

Chain of CD123 combined mutant R84Q-V85I (Homo sapiens (Human)) (P26951 19-378 R84Q/V85I limits assumed): as the sequence (P26951 19-378 limits assumed) above, with R66Q, V67I counted along it
Chain of CD123 combined mutant R84Q-V85M (Homo sapiens (Human)) (P26951 19-378 R84Q/V85M limits assumed): as the sequence (P26951 19-378 limits assumed) above, with R66Q, V67M counted along it

fold decrease of affinity (combined mutant against reference) [1]: 100 fold | fold decrease of affinity (combined mutant against reference) [2]: 100 fold
Molecule: anti-CD123 scFv clone CSL362, scFv-luciferase fusion protein

binding result (wild-type CD33 protein): binds
B1: anti-CD33 scFv clone HM195, scFv-luciferase fusion protein (scFv, V domains shown)
VH: QVQLVQSGAEVKKPGSSVKVSCKASGYTFTDYNMHWVRQAPGQGLEWIGYIYPYNGGTGYNQKFKSKATITADESTNTAYMELSSLRSEDTAVYYCARGRPAMDYWGQGTLVTVSS
VL: DIQMTQSPSSLSASVGDRVTITCRASESVDNYGISFMNWFQQKPGKAPKLLIYAASNQGSGVPSRFSGSGSGTDFTLTISSLQPDDFATYYCQQSKEVPWTFGQGTKVEIK
notes: Tested as an scFv-luciferase fusion protein

binding result (wild-type CD123 protein): binds
B2: anti-CD123 scFv clone 32716, scFv-luciferase fusion protein (scFv, V domains shown)
VH: QIQLVQSGPELKKPGETVKISCKASGYIFTNYGMNWVKQAPGKSFKWMGWINTYTGESTYSADFKGRFAFSLETSASTAYLHINDLKNEDTATYFCARSGGYDPMDYWGQGTSVTVSS
VL: DIVLTQSPASLAVSLGQRATISCRASESVDNYGNTFMHWYQQKPGQPPKLLIYRASNLESGIPARFSGSGSRTDFTLTINPVEADDVATYYCQQSNEDPPTFGAGTKLELK
